# Measured values: IntAct's records for PubMed 17932490
# B1: Serine/threonine-protein kinase 4 (Homo sapiens), Q13043 (parent)
# chain: METVQLRNPPRRQLKKLDEDSLTKQPEEVFDVLEKLGEGSYGSVYKAIHKETGQIVAIKQVPVESDLQEIIKEISIMQQCDSPHVVKYYGSYFKNTDLWIVMEYCGAGSVSDIIRLRNKTLTEDEIATILQSTLKGLEYLHFMRKIHRDIKAGNILLNTEGHAKLADFGVAGQLTDTMAKRNTVIGTPFWMAPEVIQEIGYNCVADIWSLGITAIEMAEGKPPYADIHPMRAIFMIPTNPPPTFRKPELWSDNFTDFVKQCLVKSPEQRATATQLLQHPFVRSAKGVSILRDLINEAMDVKLKRQESQQREVDQDDEENSEEDEMDSGTMVRAVGDEMGTVRVASTMTDGANTMIEHDDTLPSQLGTMVINAEDEEEEGTMKRRDETMQPAKPSFLEYFEQKEKENQINSFGKSVPGPLKNSSDWKIPQDGDYEFLKSWTVEDLQKRLLALDPMMEQEIEEIRQKYQSKRQPILDAIEAKKRRQQNF
# Variants of: B1
# Conditions: with akt1_human AKT1, P31749
# Chain of akt1_human AKT1, P31749 (P31749 whole entry): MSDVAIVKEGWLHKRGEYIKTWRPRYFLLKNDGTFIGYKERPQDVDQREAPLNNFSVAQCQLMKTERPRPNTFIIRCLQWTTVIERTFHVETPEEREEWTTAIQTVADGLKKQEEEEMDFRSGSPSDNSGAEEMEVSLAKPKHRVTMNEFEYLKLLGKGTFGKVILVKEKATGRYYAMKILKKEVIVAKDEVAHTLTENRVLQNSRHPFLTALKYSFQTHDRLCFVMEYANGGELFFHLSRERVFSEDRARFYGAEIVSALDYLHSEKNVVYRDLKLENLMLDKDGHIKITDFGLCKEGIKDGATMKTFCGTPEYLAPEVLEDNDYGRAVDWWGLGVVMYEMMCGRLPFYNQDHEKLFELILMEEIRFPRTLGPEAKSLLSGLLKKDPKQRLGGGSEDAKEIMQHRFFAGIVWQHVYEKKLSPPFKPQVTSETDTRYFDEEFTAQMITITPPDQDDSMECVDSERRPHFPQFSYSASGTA
row,effect of a mutation on the interaction,Variant
1,disrupting interaction,K59R
